# Laboratory results reported in the supplement of paper PMC9112550, “Optimization of the antimicrobial peptide Bac7 by deep mutational scanning” (BMC Biology, 2022).
# Tested on: Escherichia coli TOP10
# Test: shrunken log2 fold change of peptide-encoding DNA abundance (4.5 h post-induction vs induction); higher = less antimicrobial activity (less host growth inhibition)
# Settings: time post-induction: 4.5 h; library: site-saturation at positions 5, 18, 19, 20
# 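Also: peptides expressed intracellularly from a pBAD plasmid library in pooled LB shake-flask culture, induced with 0.3% L-arabinose, DNA abundance read by NGS, three biological replicates, DESeq2 with apeglm shrinkage.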
row,Sequence,shrunken log2 fold change
1,RRIRLRPPRLPRPRPRPLVIPRP,-0.33
2,RRIRHRPPRLPRPRPRPQPGPRP,-0.0184
3,RRIRPRPPRLPRPRPRPDICPRP,0.0683
4,RRIRERPPRLPRPRPRPFMTPRP,-0.438
5,RRIRSRPPRLPRPRPRPLTAPRP,-0.0374
6,RRIRIRPPRLPRPRPRPGQCPRP,-0.13
7,RRIRCRPPRLPRPRPRPNYIPRP,-0.84
8,RRIRPRPPRLPRPRPRPVNSPRP,-0.196
9,RRIRWRPPRLPRPRPRPIVMPRP,-0.154
10,RRIRSRPPRLPRPRPRPQWKPRP,-0.0984
11,RRIRLRPPRLPRPRPRPEEEPRP,-0.00112
12,RRIRPRPPRLPRPRPRPNFRPRP,0.156
13,RRIRQRPPRLPRPRPRPVNDPRP,-0.0199
14,RRIRRRPPRLPRPRPRPWLWPRP,0.0836
15,RRIRVRPPRLPRPRPRPCELPRP,-0.286
16,RRIRPRPPRLPRPRPRPHCIPRP,-0.325
17,RRIRIRPPRLPRPRPRPSEFPRP,-0.177
18,RRIRGRPPRLPRPRPRPAHHPRP,0.452
19,RRIRVRPPRLPRPRPRPHDIPRP,0.0663
20,RRIRKRPPRLPRPRPRPIFPPRP,0.319
21,RRIRKRPPRLPRPRPRPKRYPRP,0.032
22,RRIRWRPPRLPRPRPRPCSDPRP,0.273

row,Sequence,shrunken log2 fold change
1,RRIRDRPPRLPRPRPRPFVQPRP,-0.194
2,RRIRNRPPRLPRPRPRPESQPRP,-0.00881
3,RRIRCRPPRLPRPRPRPWENPRP,0.0328
4,RRIRCRPPRLPRPRPRPFSCPRP,0.0218
5,RRIRMRPPRLPRPRPRPHEIPRP,0.356
6,RRIRCRPPRLPRPRPRPNGGPRP,-0.00453
7,RRIRLRPPRLPRPRPRPLGVPRP,0.0325
8,RRIRERPPRLPRPRPRPVVDPRP,0.0306
9,RRIRWRPPRLPRPRPRPKRSPRP,0.08
10,RRIRQRPPRLPRPRPRPTDYPRP,-0.116
11,RRIRQRPPRLPRPRPRPETVPRP,-0.0886
12,RRIRYRPPRLPRPRPRPTKKPRP,0.113
13,RRIRERPPRLPRPRPRPKGEPRP,0.0173
14,RRIRWRPPRLPRPRPRPWYFPRP,0.275
15,RRIRDRPPRLPRPRPRPDFPPRP,0.0974
16,RRIRHRPPRLPRPRPRPVEIPRP,-0.0173
17,RRIRGRPPRLPRPRPRPNIPPRP,-0.251
18,RRIRPRPPRLPRPRPRPDHWPRP,0.0752
19,RRIRARPPRLPRPRPRPWNQPRP,-0.247
20,RRIRGRPPRLPRPRPRPVSRPRP,0.491
21,RRIRDRPPRLPRPRPRPFDTPRP,-0.329
22,RRIRFRPPRLPRPRPRPSNVPRP,-0.989

row,Sequence,shrunken log2 fold change
1,RRIRQRPPRLPRPRPRPDDLPRP,0.0248
2,RRIRDRPPRLPRPRPRPHAAPRP,0.458
3,RRIRDRPPRLPRPRPRPADPPRP,-0.155
4,RRIRWRPPRLPRPRPRPESVPRP,0.192
5,RRIRWRPPRLPRPRPRPLVSPRP,1.59
6,RRIRNRPPRLPRPRPRPKVGPRP,0.148
7,RRIRWRPPRLPRPRPRPHHCPRP,-0.239
8,RRIRNRPPRLPRPRPRPKNNPRP,-0.407
9,RRIRFRPPRLPRPRPRPHSFPRP,0.00365
10,RRIRYRPPRLPRPRPRPANKPRP,-0.278
11,RRIRGRPPRLPRPRPRPRINPRP,-0.122
12,RRIRTRPPRLPRPRPRPNICPRP,0.00449
13,RRIRQRPPRLPRPRPRPLWCPRP,-0.24
14,RRIRNRPPRLPRPRPRPNPAPRP,0.028
15,RRIRGRPPRLPRPRPRPVTHPRP,0.106
16,RRIRGRPPRLPRPRPRPMHRPRP,0.405
17,RRIRWRPPRLPRPRPRPGFTPRP,0.132
18,RRIRKRPPRLPRPRPRPEMTPRP,2.82
19,RRIRCRPPRLPRPRPRPLSWPRP,0.513
20,RRIRKRPPRLPRPRPRPLRTPRP,0.727
21,RRIRFRPPRLPRPRPRPNGFPRP,0.000958
22,RRIRSRPPRLPRPRPRPVWDPRP,-0.143

row,Sequence,shrunken log2 fold change
1,RRIRYRPPRLPRPRPRPKFNPRP,-1.1
2,RRIRARPPRLPRPRPRPRVTPRP,0.462
3,RRIRRRPPRLPRPRPRPRIHPRP,-0.113
4,RRIRRRPPRLPRPRPRPKYDPRP,-0.466
5,RRIRLRPPRLPRPRPRPTSIPRP,-0.178
6,RRIRWRPPRLPRPRPRPYKWPRP,-0.484
7,RRIRYRPPRLPRPRPRPPWSPRP,-0.372
8,RRIRVRPPRLPRPRPRPSGCPRP,-0.194
9,RRIRCRPPRLPRPRPRPCWSPRP,-0.352
10,RRIRMRPPRLPRPRPRPEEMPRP,3.07
11,RRIRPRPPRLPRPRPRPGYEPRP,-0.172
12,RRIRCRPPRLPRPRPRPFMHPRP,-1.01
13,RRIRKRPPRLPRPRPRPVICPRP,0.115
14,RRIRCRPPRLPRPRPRPFHCPRP,-0.451
15,RRIRVRPPRLPRPRPRPYLLPRP,-0.357
16,RRIRARPPRLPRPRPRPYYGPRP,-0.363
17,RRIRCRPPRLPRPRPRPAQHPRP,0.0537
18,RRIRDRPPRLPRPRPRPNPRPRP,0.0975
19,RRIRERPPRLPRPRPRPKKRPRP,0.0479
20,RRIRSRPPRLPRPRPRPYYEPRP,-0.628
21,RRIRERPPRLPRPRPRPHDMPRP,-0.0911
22,RRIRMRPPRLPRPRPRPTPRPRP,1.46

row,Sequence,shrunken log2 fold change
1,RRIRFRPPRLPRPRPRPRIKPRP,-0.168
2,RRIRVRPPRLPRPRPRPTASPRP,0.541
3,RRIRLRPPRLPRPRPRPANIPRP,-0.501
4,RRIRCRPPRLPRPRPRPGVNPRP,-0.584
5,RRIRPRPPRLPRPRPRPYEQPRP,-0.116
6,RRIRARPPRLPRPRPRPHWYPRP,0.157
7,RRIRLRPPRLPRPRPRPKCSPRP,-0.035
8,RRIRIRPPRLPRPRPRPIHPPRP,-0.208
9,RRIRTRPPRLPRPRPRPYWEPRP,-0.0372
10,RRIRMRPPRLPRPRPRPKHIPRP,-0.0498
11,RRIRPRPPRLPRPRPRPLKQPRP,0.0902
12,RRIRERPPRLPRPRPRPLVRPRP,-0.192
13,RRIRTRPPRLPRPRPRPPVYPRP,-0.0771
14,RRIRCRPPRLPRPRPRPGIHPRP,-0.405
15,RRIRYRPPRLPRPRPRPWLTPRP,-0.558
16,RRIRTRPPRLPRPRPRPERAPRP,0.55
17,RRIRNRPPRLPRPRPRPWRPPRP,0.337
18,RRIRCRPPRLPRPRPRPSRSPRP,-0.136
19,RRIRNRPPRLPRPRPRPNYEPRP,-0.21
20,RRIRPRPPRLPRPRPRPGSGPRP,1.05
21,RRIRKRPPRLPRPRPRPAVYPRP,-0.0285
